Test results from article PMC10325903, “Prediction of cooperative homeodomain DNA binding sites from high-throughput-SELEX data”.

Key:
VENTX HD fragment = target: T1, VENTX HD fragment (UniProt O95231 69-178); test: EMSA; EMSA, 34 nM IRDye700 probe, room temperature 20 min, 4% polyacrylamide gel 150 V 2 h; binding buffer as in cited ref 35 (not given); details: protein: recombinant; tags: N-terminal 6xHis (pET-14b or pET-14P; may be cleaved); chain copies: 2; label: 5' IRDye700 on bottom strand; blunt
T1 sequence: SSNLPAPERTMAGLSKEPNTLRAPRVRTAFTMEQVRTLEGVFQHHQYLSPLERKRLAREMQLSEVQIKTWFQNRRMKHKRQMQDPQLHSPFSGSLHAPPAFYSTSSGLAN

MSX1 HD fragment = MSX1 HD fragment (UniProt P28360 131-258); test: as above; details: protein: recombinant; tags: N-terminal 6xHis (pET-14b or pET-14P; may be cleaved); label: 5' IRDye700 on bottom strand; blunt
MSX1 HD fragment, sequence (P28360 131-258): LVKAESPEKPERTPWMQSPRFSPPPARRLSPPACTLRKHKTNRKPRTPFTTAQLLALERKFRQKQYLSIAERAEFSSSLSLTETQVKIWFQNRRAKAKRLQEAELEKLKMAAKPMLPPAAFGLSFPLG

Dlx2 HD fragment = Dlx2 HD fragment (UniProt P40764 137-229); test: EMSA; 20 and 80 nM protein; monomer; EMSA, 34 nM IRDye700 probe, room temperature 20 min, 4% polyacrylamide gel 150 V 2 h; binding buffer as in cited ref 35 (not given); details: protein: recombinant; tags: N-terminal 6xHis (pET-14b or pET-14P; may be cleaved); label: 5' IRDye700 on bottom strand; blunt
Dlx2 HD fragment, sequence (P40764 137-229): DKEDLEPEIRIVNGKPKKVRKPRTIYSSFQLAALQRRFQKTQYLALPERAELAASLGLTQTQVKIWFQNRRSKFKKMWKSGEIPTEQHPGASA

Alx4 HD fragment = Alx4 HD fragment (UniProt O35137 157-291); test: EMSA; EMSA, 34 nM IRDye700 probe, room temperature 20 min, 4% polyacrylamide gel 150 V 2 h; binding buffer as in cited ref 35 (not given); details: protein: recombinant; tags: N-terminal 6xHis (pET-14b or pET-14P; may be cleaved); chain copies: 2; label: 5' IRDye700 on bottom strand; blunt
Alx4 HD fragment, sequence (O35137 157-291): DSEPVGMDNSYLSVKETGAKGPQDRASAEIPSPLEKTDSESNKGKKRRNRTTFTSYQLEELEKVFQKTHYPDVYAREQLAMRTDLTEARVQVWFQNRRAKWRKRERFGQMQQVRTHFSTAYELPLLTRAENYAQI

Gsx1 HD fragment = Gsx1 HD fragment (UniProt P31315 127-261); test: as above; details: protein: recombinant; tags: N-terminal 6xHis (pET-14b or pET-14P; may be cleaved); chain copies: 2; label: 5' IRDye700 on bottom strand; blunt
Gsx1 HD fragment, sequence (P31315 127-261): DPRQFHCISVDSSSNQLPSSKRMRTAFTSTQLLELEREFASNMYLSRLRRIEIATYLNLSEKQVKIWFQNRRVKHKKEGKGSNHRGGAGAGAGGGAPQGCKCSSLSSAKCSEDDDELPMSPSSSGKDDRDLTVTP

Barhl2 HD fragment = Barhl2 HD fragment (UniProt Q8VIB5 190-316); test: as above; details: protein: recombinant; tags: N-terminal 6xHis (pET-14b or pET-14P; may be cleaved); label: 5' IRDye700 on bottom strand; blunt
Barhl2 HD fragment, sequence (Q8VIB5 190-316): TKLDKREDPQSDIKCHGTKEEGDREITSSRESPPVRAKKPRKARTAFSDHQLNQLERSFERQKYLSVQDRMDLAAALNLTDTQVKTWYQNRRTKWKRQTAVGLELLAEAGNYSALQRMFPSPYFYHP

Alx1 (Cart1) HD fragment = Alx1 (Cart1) HD fragment (UniProt Q8C8B0 105-220); test: as above; details: protein: recombinant; tags: N-terminal 6xHis (pET-14b or pET-14P; may be cleaved); chain copies: 2; label: 5' IRDye700 on bottom strand; blunt
Alx1 (Cart1) HD fragment, sequence (Q8C8B0 105-220): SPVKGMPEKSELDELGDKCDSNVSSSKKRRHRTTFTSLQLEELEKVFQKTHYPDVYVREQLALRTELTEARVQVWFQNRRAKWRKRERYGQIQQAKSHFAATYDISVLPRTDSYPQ

Msx2 HD fragment = Msx2 HD fragment (UniProt Q03358 99-227); test: as above; details: protein: recombinant; tags: N-terminal 6xHis (pET-14b or pET-14P; may be cleaved); chain copies: 2; label: 5' IRDye700 on bottom strand; blunt
Msx2 HD fragment, sequence (Q03358 99-227): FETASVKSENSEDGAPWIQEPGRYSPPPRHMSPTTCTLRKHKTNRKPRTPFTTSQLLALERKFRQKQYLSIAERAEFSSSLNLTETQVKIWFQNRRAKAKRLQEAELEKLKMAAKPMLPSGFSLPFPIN

Gsx2 HD fragment = Gsx2 HD fragment (UniProt P31316 167-305); test: EMSA; 100 and 400 nM protein; EMSA, 34 nM IRDye700 probe, room temperature 20 min, 4% polyacrylamide gel 150 V 2 h; binding buffer as in cited ref 35 (not given); details: protein: recombinant; tags: N-terminal 6xHis (pET-14b or pET-14P; may be cleaved); chain copies: 2; label: 5' IRDye700 on bottom strand; blunt
Gsx2 HD fragment, sequence (P31316 167-305): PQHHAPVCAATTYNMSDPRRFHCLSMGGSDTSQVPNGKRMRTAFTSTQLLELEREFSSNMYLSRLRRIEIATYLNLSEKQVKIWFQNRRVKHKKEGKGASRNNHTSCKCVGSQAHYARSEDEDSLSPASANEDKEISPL

Barx1 HD fragment = target: T2, Barx1 HD fragment (UniProt Q9ER42 95-221); test: EMSA; EMSA, 34 nM IRDye700 probe, room temperature 20 min, 4% polyacrylamide gel 150 V 2 h; binding buffer as in cited ref 35 (not given); details: protein: recombinant; tags: N-terminal 6xHis (pET-14b or pET-14P; may be cleaved); chain copies: 2; label: 5' IRDye700 on bottom strand; blunt
T2 sequence: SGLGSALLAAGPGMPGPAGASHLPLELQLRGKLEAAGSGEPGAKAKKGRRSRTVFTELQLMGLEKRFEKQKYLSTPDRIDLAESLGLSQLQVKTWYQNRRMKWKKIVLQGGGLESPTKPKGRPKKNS

Arx HD fragment = Arx HD fragment (UniProt O35085 292-420); test: as above; details: protein: recombinant; tags: N-terminal 6xHis (pET-14b or pET-14P; may be cleaved); chain copies: 2; label: 5' IRDye700 on bottom strand; blunt
Arx HD fragment, sequence (O35085 292-420): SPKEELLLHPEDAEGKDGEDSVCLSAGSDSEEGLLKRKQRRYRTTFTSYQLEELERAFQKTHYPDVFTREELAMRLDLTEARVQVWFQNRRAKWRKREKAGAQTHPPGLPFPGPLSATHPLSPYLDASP

En1 HD fragment = target: T3, En1 HD fragment (UniProt P09065 282-401); test: as above; details: protein: recombinant; tags: N-terminal 6xHis (pET-14b or pET-14P; may be cleaved); label: 5' IRDye700 on bottom strand; blunt
T3 sequence: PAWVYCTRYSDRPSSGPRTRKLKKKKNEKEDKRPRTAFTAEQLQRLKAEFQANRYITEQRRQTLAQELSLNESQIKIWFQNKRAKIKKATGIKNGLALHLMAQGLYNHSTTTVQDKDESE

HESX1 HD fragment = HESX1 HD fragment (UniProt Q9UBX0 65-185); test: as above; details: protein: recombinant; tags: N-terminal 6xHis (pET-14b or pET-14P; may be cleaved); label: 5' IRDye700 on bottom strand; blunt
HESX1 HD fragment, sequence (Q9UBX0 65-185): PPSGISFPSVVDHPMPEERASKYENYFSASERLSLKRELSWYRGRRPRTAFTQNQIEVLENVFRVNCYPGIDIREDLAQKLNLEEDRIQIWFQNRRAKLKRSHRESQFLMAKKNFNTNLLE

B1: VENTX_SELEX_1+1 (dsDNA)
DNA 1: TGAAGTTAAGCCTAATCGATAGAACGATTAGCGTTAGGAATAGTGCGGGCGTGGCT
DNA 2: AGCCACGCCCGCACTATTCCTAACGCTAATCGTTCTATCGATTAGGCTTAACTTCA
VENTX HD fragment
  cooperativity factor (tau): 3.3 ± 3 Tau cooperativity factor

B2: MSX1_SELEX_1 (dsDNA)
DNA 1: TGCGAACAGAAGCCAATTAGTGCTAATTGGCCAATTAGCTAGTGCGGGCGTGGCT
DNA 2: AGCCACGCCCGCACTAGCTAATTGGCCAATTAGCACTAATTGGCTTCTGTTCGCA
MSX1 HD fragment
  cooperativity factor (tau): 1.2 ± 0.1 Tau cooperativity factor

B3: Dlx2_HOMER (dsDNA)
DNA 1: TTCATGGGTAATTAGGTGTTATTATAGTGCGGGCGTGGCT
DNA 2: AGCCACGCCCGCACTATAATAACACCTAATTACCCATGAA
Dlx2 HD fragment
  binding result: binds

B4: Alx4_SELEX_1+1 (dsDNA)
DNA 1: TGTGTCTTAATTAGGATTAACGCACTTGATAGTGCGGGCGTGGCT
DNA 2: AGCCACGCCCGCACTATCAAGTGCGTTAATCCTAATTAAGACACA
Alx4 HD fragment
  cooperativity factor (tau): 1.1 ± 0.8 Tau cooperativity factor

B5: Gsx1_HOMER+1 (dsDNA)
DNA 1: TCACACTTAATTACTGAATTAATTACGTAGTGCGGGCGTGGCT
DNA 2: AGCCACGCCCGCACTACGTAATTAATTCAGTAATTAAGTGTGA
Gsx1 HD fragment
  cooperativity factor (tau): 2.9 ± 0.9 Tau cooperativity factor

B6: Barhl2_SELEX_1+1 (dsDNA)
DNA 1: TATTGTTGCTAAACGGTGGCGTTTAGCGTGTAGTGCGGGCGTGGCT
DNA 2: AGCCACGCCCGCACTACACGCTAAACGCCACCGTTTAGCAACAATA
Barhl2 HD fragment
  cooperativity factor (tau): 6.4 ± 1.2 Tau cooperativity factor

B7: Alx1_SELEX_2 (dsDNA)
DNA 1: TGCGCCTAATTAGATTAACCTGAACAGATAGTGCGGGCGTGGCT
DNA 2: AGCCACGCCCGCACTATCTGTTCAGGTTAATCTAATTAGGCGCA
Alx1 (Cart1) HD fragment
  cooperativity factor (tau): 126 ± 27.2 Tau cooperativity factor

B8: Msx2_SELEX_2 (dsDNA)
DNA 1: TGCGGGGCAATTAAATACCAATTAGTGATAGTGCGGGCGTGGCT
DNA 2: AGCCACGCCCGCACTATCACTAATTGGTATTTAATTGCCCCGCA
Msx2 HD fragment
  cooperativity factor (tau): 14 ± 2.6 Tau cooperativity factor

B9: Alx4_SELEX_1 (dsDNA)
DNA 1: TGTGTCTTAATTAGATTAACGCACTTGATAGTGCGGGCGTGGCT
DNA 2: AGCCACGCCCGCACTATCAAGTGCGTTAATCTAATTAAGACACA
Alx4 HD fragment
  cooperativity factor (tau): 167 ± 23.1 Tau cooperativity factor

B10: Gsx2_SELEX_1 (dsDNA)
DNA 1: TCCAACAACAATTAAAAACATATTAACGTAGTGCGGGCGTGGCT
DNA 2: AGCCACGCCCGCACTACGTTAATATGTTTTTAATTGTTGTTGGA
Gsx2 HD fragment
  binding result: binds

B11: Barx1_SELEX_2 (dsDNA)
DNA 1: TATTCGAAACAATTAAATAACGATTACTGTAGTGCGGGCGTGGCT
DNA 2: AGCCACGCCCGCACTACAGTAATCGTTATTTAATTGTTTCGAATA
Barx1 HD fragment
  cooperativity factor (tau): 4.4 ± 0.6 Tau cooperativity factor

B12: Gsx2_SELEX_2 (dsDNA)
DNA 1: TCCAACAGTCATTAAACTCTCATTATCGTAGTGCGGGCGTGGCT
DNA 2: AGCCACGCCCGCACTACGATAATGAGAGTTTAATGACTGTTGGA
Gsx2 HD fragment
  binding result: binds

B13: Alx1_SELEX_2+1 (dsDNA)
DNA 1: TGCGCCTAATTAGGATTAACCTGAACAGATAGTGCGGGCGTGGCT
DNA 2: AGCCACGCCCGCACTATCTGTTCAGGTTAATCCTAATTAGGCGCA
Alx1 (Cart1) HD fragment
  cooperativity factor (tau): 10.1 ± 9.7 Tau cooperativity factor

B14: MSX1_SELEX_1+1 (dsDNA)
DNA 1: TGCGAACAGAAGCCAATTAGTGGCTAATTGGCCAATTAGCTAGTGCGGGCGTGGCT
DNA 2: AGCCACGCCCGCACTAGCTAATTGGCCAATTAGCCACTAATTGGCTTCTGTTCGCA
MSX1 HD fragment
  cooperativity factor (tau): 1.2 ± 0.2 Tau cooperativity factor

B15: Msx2_SELEX_2+1 (dsDNA)
DNA 1: TGCGGGGCAATTAAATGACCAATTAGTGATAGTGCGGGCGTGGCT
DNA 2: AGCCACGCCCGCACTATCACTAATTGGTCATTTAATTGCCCCGCA
Msx2 HD fragment
  cooperativity factor (tau): 2.1 ± 0.6 Tau cooperativity factor

B16: Arx_SELEX_1 (dsDNA)
DNA 1: TGCGTTGCTAATTGAATTAGCACACGTGCTAGTGCGGGCGTGGCT
DNA 2: AGCCACGCCCGCACTAGCACGTGTGCTAATTCAATTAGCAACGCA
Arx HD fragment
  cooperativity factor (tau): 168 ± 50.7 Tau cooperativity factor

B17: VENTX_SELEX_1 (dsDNA)
DNA 1: TGAAGTTAAGCCTAATCGATAAACGATTAGCGTTAGGAATAGTGCGGGCGTGGCT
DNA 2: AGCCACGCCCGCACTATTCCTAACGCTAATCGTTTATCGATTAGGCTTAACTTCA
VENTX HD fragment
  cooperativity factor (tau): 36.7 ± 3.9 Tau cooperativity factor

B18: Gsx1_HOMER (dsDNA)
DNA 1: TCACACTTAATTACTAATTAATTACGTAGTGCGGGCGTGGCT
DNA 2: AGCCACGCCCGCACTACGTAATTAATTAGTAATTAAGTGTGA
Gsx1 HD fragment
  cooperativity factor (tau): 48.7 ± 12.9 Tau cooperativity factor

B19: Barhl2_SELEX_1 (dsDNA)
DNA 1: TATTGTTGCTAAACGGTGCGTTTAGCGTGTAGTGCGGGCGTGGCT
DNA 2: AGCCACGCCCGCACTACACGCTAAACGCACCGTTTAGCAACAATA
Barhl2 HD fragment
  cooperativity factor (tau): 5.4 ± 0.58 Tau cooperativity factor

B20: Barx1_SELEX_2+1 (dsDNA)
DNA 1: TATTCGAAACAATTAAATAGACGATTACTGTAGTGCGGGCGTGGCT
DNA 2: AGCCACGCCCGCACTACAGTAATCGTCTATTTAATTGTTTCGAATA
Barx1 HD fragment
  cooperativity factor (tau): 0.7 ± 0.2 Tau cooperativity factor

B21: En1_SELEX_2 (dsDNA)
DNA 1: TGTAGGATAATTGGGTAATTAGTGCAGATAGTGCGGGCGTGGCT
DNA 2: AGCCACGCCCGCACTATCTGCACTAATTACCCAATTATCCTACA
En1 HD fragment
  cooperativity factor (tau): 0.1 ± 0.1 Tau cooperativity factor

B22: Arx_SELEX_1+1 (dsDNA)
DNA 1: TGCGTTGCTAATTGGAATTAGCACACGTGCTAGTGCGGGCGTGGCT
DNA 2: AGCCACGCCCGCACTAGCACGTGTGCTAATTCCAATTAGCAACGCA
Arx HD fragment
  cooperativity factor (tau): 36.4 ± 11.5 Tau cooperativity factor

B23: HESX1_HOMER (dsDNA)
DNA 1: TCTTCTCTAATTAGTGCTAATTCTGTAGTGCGGGCGTGGCT
DNA 2: AGCCACGCCCGCACTACAGAATTAGCACTAATTAGAGAAGA
HESX1 HD fragment
  cooperativity factor (tau): 1.7 ± 2 Tau cooperativity factor

B24: Dlx2_SELEX_2 (dsDNA)
DNA 1: TTCATGCAATTACTGCTAATTGCCACTATAGTGCGGGCGTGGCT
DNA 2: AGCCACGCCCGCACTATAGTGGCAATTAGCAGTAATTGCATGAA
Dlx2 HD fragment
  binding result: binds

B25: HESX1_HOMER+1 (dsDNA)
DNA 1: TCTTCTCTAATTAGTGGCTAATTCTGTAGTGCGGGCGTGGCT
DNA 2: AGCCACGCCCGCACTACAGAATTAGCCACTAATTAGAGAAGA
HESX1 HD fragment
  cooperativity factor (tau): 1.3 ± 1.8 Tau cooperativity factor

B26: En1_SELEX_2+1 (dsDNA)
DNA 1: TGTAGGATAATTGGGGTAATTAGTGCAGATAGTGCGGGCGTGGCT
DNA 2: AGCCACGCCCGCACTATCTGCACTAATTACCCCAATTATCCTACA
En1 HD fragment
  cooperativity factor (tau): 0.2 ± 0.1 Tau cooperativity factor
